# Measured values as given in PMC3975076, “High-throughput binding characterization of RNA aptamer selections using a microplate-based multiplex microcolumn device”.
# T1: UBLCP1 (UniProt Q8WVY7)
# T1 sequence: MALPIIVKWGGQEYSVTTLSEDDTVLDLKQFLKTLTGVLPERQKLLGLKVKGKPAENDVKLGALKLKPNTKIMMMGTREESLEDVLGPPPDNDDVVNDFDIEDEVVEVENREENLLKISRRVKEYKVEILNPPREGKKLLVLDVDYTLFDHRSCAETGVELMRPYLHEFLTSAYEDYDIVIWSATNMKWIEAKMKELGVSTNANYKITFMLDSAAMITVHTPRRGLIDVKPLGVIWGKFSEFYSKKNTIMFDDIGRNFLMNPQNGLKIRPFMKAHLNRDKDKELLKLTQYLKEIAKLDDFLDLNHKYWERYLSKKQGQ
# T2: NELF-E (Drosophila, UniProt P92204 1-280)
# T2 sequence: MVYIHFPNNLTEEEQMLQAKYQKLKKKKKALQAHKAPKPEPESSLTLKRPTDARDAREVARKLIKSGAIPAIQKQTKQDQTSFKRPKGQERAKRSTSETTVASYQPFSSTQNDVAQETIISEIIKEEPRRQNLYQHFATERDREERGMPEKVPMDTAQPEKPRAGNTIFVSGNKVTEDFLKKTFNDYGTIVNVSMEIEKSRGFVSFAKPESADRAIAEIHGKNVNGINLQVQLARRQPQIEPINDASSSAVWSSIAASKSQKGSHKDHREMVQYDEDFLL
# B1: NELFapt (structured_RNA)
# RNA: GGGAAUGGAUCCACAUCUACGAAUUCCCAACGACUGCCGAGCGAGAUUACGCUUGAGCGCCCCACUGAGGAUGCCCACGGGCGAUUGGGGCACGGCUUCACUGCAGACUUGACGAAGCUU
# Key:
# GFP = GFP (UniProt P42212); experiment: affinity microcolumn + qPCR; settings: GFP 0.6 ug/uL resin; serial; Binding buffer (composition, pH and temperature not in material) with 10 ug/mL yeast tRNA; serial: 4.75 nM N70 library + 50 pM each aptamer/BBS, 1 mL, protein …
# UBLCP1 = molecular target: T1, UBLCP1; experiment: affinity microcolumn + qPCR; settings: value is average over all 7 other targets; Binding buffer (composition, pH and temperature not in material) with 10 ug/mL yeast tRNA; serial: 4.75 nM N70 library + 50 pM each aptamer/BBS, 1 mL, protein …
# NELF-E = molecular target: T2, NELF-E; experiment: affinity microcolumn + qPCR; NELF-E 0.6 ug/uL resin; serial; Binding buffer (composition, pH and temperature not in material) with 10 ug/mL yeast tRNA; serial: 4.75 nM N70 library + 50 pM each aptamer/BBS, 1 mL, protein 0.6 ug/uL resin; wash 3 mL at 300 uL/min; settings: protein: recombinant; tags: His6
Molecule,binding signal (fold enrichment over N70 library) (GFP),binding signal (fold enrichment over N70 library) (UBLCP1),binding signal (NELF-E)
AGCUUCUGGACUGCGAUGGGAGCACGAAACGUCGUGGCGCAAUUGGGUGGGGAAAGUCCUUAAAAGAGGGCCACCACAGAAGCU [GFPapt (AP3-1)],750,0.6,
GGGAAUGGAUCCACAUCUACGAAUUCAAUCAAGUCCCCAGACUCAGCAACACUGGACAGCGAUAUGCAGAUAACCAAGACCAAUUCACUCCAGUUCACUGCAGACUUGACGAAGCUU [HSFapt],,2,
GGGAAUGGAUCCACAUCUACGAAUUCCCAACGACUGCCGAGCGAGAUUACGCUUGAGCGCCCCACUGAGGAUGCCCACGGGCGAUUGGGGCACGGCUUCACUGCAGACUUGACGAAGCUU [NELFapt],,1.6,
B1,,,262 fold enrichment over N70 library
